According to patent US20160168247A1 (published 2016):

Molecular target: T1, HSC-F (cynomolgus monkey, UniProt Q95LI8 22-171; Q95LI7 23-181)
T1 chain: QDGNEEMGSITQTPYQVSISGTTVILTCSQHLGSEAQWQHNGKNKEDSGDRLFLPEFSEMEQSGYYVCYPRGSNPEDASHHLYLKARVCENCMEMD
Experiment: FACS binding; second row printed H4L1; graph legend indicates H4L3

EC50: 0.24 µg/mL
B1: bsIgG1-huCD3-H4L1xHER2-LFLEDA (bispecific antibody, V domains shown)
VH 1: EVKLVESGGGLVKPGRSLRLSCAASGFTFNTYAMNWVRQAPGKGLEWVARIRSKYNNYATYYADSVKDRFTISRDDSKSILYLQMNSLKTEDTAMYYCVRHGNFGNSYVSWFAYWGQGTMVTVSS
VL 1: QAVVTQEPSFSVSPGGTVTLTCRSSTGAVTTSNYANWVQQTPGQAFRGLIGGTNKRAPGVPARFSGSILGNKAALTITGAQADDESDYYCALWYSNLWVFGGGTKLTVL
VH 2: QVQLVQSGAEVKKPGASVKVSCKASGYTFTNYGISWVRQAPGQGLEWMGWLSAYSGNTIYAQKLQGRVTMTTDTSTTTAYMELRSLRSDDTAVYYCARDRIVVRPDYFDYWGQGTLVTVSS
VL 2: EIVLTQSPATLSLSPGERATLSCRASQSVSSYLAWYQQKPGQAPRLLIYDASNRATGIPARFSGSGSGTDFTLTISSLEPEDFAVYYCQQRSNWPRTFGQGTKVEIK
